How the values were obtained:
[1] = molecular target: heme (acquired from hemoglobin resin); test: visible spectroscopy after incubation with hemoglobin resin; conditions: mean difference before and after incubation with beads, three independent experiments; parent: est. 0.40; read off a plot
[2] = molecular target: bovine holo hemoglobin, P01966;P02070; test: pull-down (hemoglobin resin, anti-His Western, band intensity quantified); conditions: three independent pull-down experiments; parent: est. 7.5; read off a plot

apo HphA (hemophilin), N-terminal 6X His tagged, heme stripped by acid-acetone extraction (from UniProt A0A059ZRB8) H43A; H106A
response [1]: 0.03 ΔAbsorbance | response [2]: 1.5 % of Input

Reference: publication PMC8560813
